The experiment has as its target recombinant wild type echinenone-binding protein from Evechinus chloroticus (apo-rEBP) (Evechinus chloroticus). The experiment in a line: SEC; HiPrep 16/60 Sephacryl S-100 HR gel-permeation column, non-reducing conditions, 50 mM HEPES pH 8.0, 0.1 M NaCl, 10% v/v glycerol; final purification step; molecular weights estimated from the manufacturer's column standard curve.

The values below come from publication PMC4156332.

For “recombinant wild type echinenone-binding protein from Evechinus chloroticus (apo-rEBP) (natural protein)”, the stoichiometry N is 2.

Broadly, the stoichiometry N is a count of units in the complex or per binding partner.
